Substrate: O=C1OC(c2ccc(O)c(S(=O)(=O)O)c2)(c2ccc(O)c(S(=O)(=O)O)c2)c2c(Br)c(Br)c(Br)c(Br)c21
Assay: TP_TRANSPORTER: uptake (no BSA) in Xenopus laevis oocytes
Type: functional, cell-based, Oocyte

B1: Solute carrier organic anion transporter family member 1A1 (Rattus norvegicus) (protein)
chain: MEETEKKIATQEGRLFSKMKVFLLSLTCACLTKSLSGVYMNSMLTQIERQFDISTSVAGLINGSFEIGNLFFIVFVSYFGTKLHRPVVIGIGCVIMGLGCLLMSLPHFFMGRYEYETTISPTGNLSSNSFLCMENRTQTLKPTQDPAECVKEMKSLMWICVMVGNIIRGIGETPIVPLGISYIEDFAKSENSPLYIGILEMGKVAGPIFGLLLGSYCAQIYVDIGSVNTDDLTITPSDTRWVGAWWIGFLVCAGVNILTSIPFFFLPKALPKKGQQENVAVTKDGKVEKYGGQAREENLGITKDFLTFMKRLFCNPIYMLFILTSVLQVNGFINKFTFLPKYLEQQYGKSTAEAIFLIGVYSLPPICLGYLIGGFIMKKFKITVKKAAYLAFCLSVFEYLLFLCHFMLTCDNAAVAGLTTSYKGVQHQLHVESKVLADCNTRCSCSTNTWDPVCGDNGVAYMSACLAGCKKFVGTGTNMVFQDCSCIQSLGNSSAVLGLCKKGPECANRLQYFLILTIIISFIYSLTAIPGYMVFLRCVKSEEKSLGVGLHTFCIRVFAGIPAPVYFGALIDRTCLHWGTLKCGQRGACRMYDINSFRHIYLGLPIALRGSSYLPAFFILILMRKFQFPGDIDSSATDHTEMMLGEKESEHTDVHGSPQVENDGELKTKL
Km: 1.5 µM

Source: ChEMBL document CHEMBL2074123, “Expression cloning of a rat liver Na(+)-independent organic anion transporter” (Proc Natl Acad Sci U S A, 1994)
